Residue numbers refer to the chain shown, from its start. In names and notes the source's numbering stands.
How the values were obtained:
[1] = target: T1, coil C-mCherry-6xHis fusion protein (human); assay: ITC, C′-GFP injected into C-mCherry, PBS pH 7.5, 25 °C
T1 construct: also called mCherry-C; wild-type mCherry-C; not shown: mCherry red fluorescent protein fused to the C-terminal of coil C
T1 chain: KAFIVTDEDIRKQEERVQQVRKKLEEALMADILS
Method: ITC analysis was conducted using MicroCal Auto-iTC200 (Malvern Panalytical) at the Korea Basic Science Institute (Ochang, Korea). […] For titration, 2 μL of C′-GFP was injected to C-mCherry 19 times at 25° C. for 4 seconds, with 150-seconds intervals, and data were analyzed using the MicroCal Origin 7.0 software. N is the stoichiometric number, KD is the binding affinity, and AH and AS are changes in enthalpy and binding entropy, respectively.

[2] = target: T2, C_Thr6 (T6C) coil C mutant fused to mCherry (human); assay: FRET between GFP and mCherry, equimolar mixture, 4 µM, plate reader
T2 construct: also called C half of Thr6-Arg29
T2 chain: T1 chain with T6C
Method: (§1) A sample of wild-type GFP alone or a mixture of C′-GFP/C-mCherry, Ala27-lle8 and Thr6-Arg29 in equimolar quantities was diluted appropriately with phosphate-buffered saline (PBS) to make a total volume of 200 μL and a concentration of 4 μM. The sample was transferred to a 96-well plate and the absorbance at 510 nm 488 nm and luminescence (fluorescence) of each well were measured with the Synergy H1 hybrid multi-mode microplate reader (BioTek). After calculating the luminescence (A) per unit absorbance of the wild-type GFP alone sample and the luminescence (B) per unit absorbance of each sample, fluorescence resonance energy transfer efficiency was calculated by the following equation.

[3] = target: T3, C_Ala27 (A27C) coil C mutant fused to mCherry (human); assay: as above
T3 construct: also called C half of Ala27-Ile8
T3 chain: T1 chain with A27C
Method: as §1

B1: coil C′-GFP-6xHis fusion protein (other)
chain: PEERERMIKQLKEELRLEEAKLVLLKKLRQSQIQKEATAQK
notes: also called GFP-C′; wild-type GFP-C′; not shown: green fluorescent protein (GFP) fused to the C-terminal of coil C′
Question: Which Kd [1] does the source give for B1 here?
Answer: The Kd was 10.7 nM.

Question: And the ΔH [1]?
Answer: The ΔH was -2.6 kcal/mol.

Question: And the ΔS [1]?
Answer: Its ΔS is -52.4 cal/mol/deg.

B2: C′_Arg29 (R29C) coil C′ mutant fused to GFP (other, not shown: large carriers)
chain: B1 chain with R29C
notes: also called C′ half of Thr6-Arg29
Question: For B2, which “FRET efficiency, fold against wild-type (GFP-C′+mCherry-C)” value [2] is on record?
Answer: The value was ≥ 2 fold.

B3: C′_Ile8 (I8C) coil C′ mutant fused to GFP (other, not shown: large carriers)
chain: B1 chain with I8C
modifications: not fully specified
notes: also called 18C; C′ half of Ala27-Ile8
Question: B3 was tested. Which “FRET efficiency, fold against wild-type (GFP-C′+mCherry-C)” value [3] did it give?
Answer: Its value is ≥ 2 fold.

— US20240277857A1 (NBIOS, published 2024)
